Results from publication PMC2756588.

Columns and labels:
Assay in all cases: SPOT array
[1] = target: T1, Abp1, P15891; settings: median of control spots 935
T1 sequence (P15891 535-592, looked up): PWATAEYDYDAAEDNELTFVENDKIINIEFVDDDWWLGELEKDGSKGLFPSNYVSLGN

[2] = target: T2, Bbc1, P47068; settings: median of control spots 796
T2 sequence (P47068 1-78, looked up): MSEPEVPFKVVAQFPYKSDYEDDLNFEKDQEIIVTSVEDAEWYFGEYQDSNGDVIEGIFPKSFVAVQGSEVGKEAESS

[3] = target: Bem1-1, P29366; settings: median of control spots 4282
Chain of Bem1-1, P29366 (P29366 55-141): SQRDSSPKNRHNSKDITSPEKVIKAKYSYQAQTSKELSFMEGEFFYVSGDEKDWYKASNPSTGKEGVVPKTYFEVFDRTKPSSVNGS

[4] = target: Bem1-2, P29366; settings: median of control spots 4347
Chain of Bem1-2, P29366 (P29366 139-227): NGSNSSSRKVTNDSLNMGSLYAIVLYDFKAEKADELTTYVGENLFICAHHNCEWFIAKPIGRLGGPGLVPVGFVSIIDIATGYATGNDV

[5] = target: T3, Boi1, P38041; settings: median of control spots 1162
T3 sequence (P38041 1-86, looked up): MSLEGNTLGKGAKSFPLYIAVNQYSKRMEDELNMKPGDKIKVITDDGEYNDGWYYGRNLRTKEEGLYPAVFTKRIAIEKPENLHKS

[6] = target: T4, Boi2, P39969; settings: median of control spots 1161
T4 sequence (P39969 32-116, looked up): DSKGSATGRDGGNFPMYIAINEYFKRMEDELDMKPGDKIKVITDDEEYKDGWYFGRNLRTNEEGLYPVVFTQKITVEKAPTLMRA

[7] = target: T5, Bud14, P27637; settings: median of control spots 956
T5 sequence (P27637 247-328, looked up): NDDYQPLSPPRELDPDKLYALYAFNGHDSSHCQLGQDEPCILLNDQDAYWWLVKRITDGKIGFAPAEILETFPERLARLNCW

[8] = target: T6, Bzz1-1, P38822; settings: median of control spots 4446
T6 sequence (P38822 478-572, looked up): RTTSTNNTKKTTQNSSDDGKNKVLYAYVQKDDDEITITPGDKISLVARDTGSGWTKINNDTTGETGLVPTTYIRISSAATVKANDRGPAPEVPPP

[9] = target: T7, Bzz1-2, P38822; settings: median of control spots 4538
T7 sequence (P38822 568-633, looked up): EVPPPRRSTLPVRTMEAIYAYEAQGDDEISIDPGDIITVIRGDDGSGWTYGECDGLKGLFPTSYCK

[10] = target: T8, Cdc25, P04821; settings: median of control spots 969
T8 sequence (P04821 50-136, looked up): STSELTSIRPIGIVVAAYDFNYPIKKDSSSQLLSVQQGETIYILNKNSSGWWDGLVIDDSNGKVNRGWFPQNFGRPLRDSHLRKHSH

[11] = target: T9, Cyk3, Q07533; settings: median of control spots 1451
T9 sequence (Q07533 1-83, looked up): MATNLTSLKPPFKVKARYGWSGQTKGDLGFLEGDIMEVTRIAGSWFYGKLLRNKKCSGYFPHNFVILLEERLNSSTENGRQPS

[12] = target: T10, Fus1, P11710; settings: median of control spots 1200
T10 sequence (P11710 432-512, looked up): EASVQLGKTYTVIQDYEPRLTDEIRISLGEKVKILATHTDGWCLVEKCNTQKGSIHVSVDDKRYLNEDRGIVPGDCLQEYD

[13] = target: GST; settings: median of control spots 978
[14] = target: T11, Hof1, Q05080; settings: median of control spots 4086
T11 sequence (Q05080 590-669, looked up): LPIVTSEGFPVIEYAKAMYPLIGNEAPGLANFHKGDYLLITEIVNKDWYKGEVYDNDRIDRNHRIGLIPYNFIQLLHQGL

[15] = target: T12, Hse1, P38753; settings: median of control spots 1727
T12 sequence (P38753 208-285, looked up): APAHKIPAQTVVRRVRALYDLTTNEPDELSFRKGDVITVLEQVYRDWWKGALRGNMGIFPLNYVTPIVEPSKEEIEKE

[16] = target: T13, Lsb1, P53281; settings: median of control spots 388
T13 sequence (P53281 45-122, looked up): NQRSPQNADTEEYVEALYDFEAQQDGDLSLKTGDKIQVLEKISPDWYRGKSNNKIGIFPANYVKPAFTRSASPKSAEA

[17] = target: T14, Lsb3, P43603; settings: median of control spots 406
T14 sequence (P43603 385-451, looked up): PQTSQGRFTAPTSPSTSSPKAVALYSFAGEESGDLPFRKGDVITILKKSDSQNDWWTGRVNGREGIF

[18] = target: T15, Lsb4, P32793; settings: median of control spots 397
T15 sequence (P32793 402-468, looked up): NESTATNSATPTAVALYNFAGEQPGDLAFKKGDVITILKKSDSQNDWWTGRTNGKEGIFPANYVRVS

[19] = target: Myo3, P36006; settings: median of control spots 468
[20] = target: T16, Myo5, Q04439; settings: median of control spots 471
T16 sequence (Q04439 1072-1160, looked up): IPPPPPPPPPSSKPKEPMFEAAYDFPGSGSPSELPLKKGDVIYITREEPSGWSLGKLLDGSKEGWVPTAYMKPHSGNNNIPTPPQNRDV

[21] = target: T17, Nbp2, Q12163; settings: median of control spots 357
T17 sequence (Q12163 103-180, looked up): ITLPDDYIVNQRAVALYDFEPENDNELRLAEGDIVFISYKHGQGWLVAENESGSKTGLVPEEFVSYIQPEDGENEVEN

[22] = target: T18, Pex13, P80667; settings: median of control spots 1341
T18 sequence (P80667 295-386, looked up): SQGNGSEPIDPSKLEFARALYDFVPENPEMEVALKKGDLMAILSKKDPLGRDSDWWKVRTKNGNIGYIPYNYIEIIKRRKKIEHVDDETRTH

[23] = target: T19, Pin3, Q06449; settings: median of control spots 2171
T19 sequence (Q06449 53-122, looked up): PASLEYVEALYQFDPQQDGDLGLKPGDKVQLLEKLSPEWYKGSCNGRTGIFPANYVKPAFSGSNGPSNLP

[24] = target: Rvs167, P39743; settings: median of control spots 2707
Chain of Rvs167, P39743 (P39743 419-482): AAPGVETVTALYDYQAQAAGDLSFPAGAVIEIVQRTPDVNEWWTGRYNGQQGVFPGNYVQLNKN

[25] = target: Sho1, P40073; settings: median of control spots 1148
Chain of Sho1, P40073 (P40073 287-367): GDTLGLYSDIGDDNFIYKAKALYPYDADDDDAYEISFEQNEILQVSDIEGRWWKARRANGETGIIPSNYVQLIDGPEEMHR

[26] = target: T20, Sla1-2, P32790; settings: median of control spots 712
T20 sequence (P32790 60-140, looked up): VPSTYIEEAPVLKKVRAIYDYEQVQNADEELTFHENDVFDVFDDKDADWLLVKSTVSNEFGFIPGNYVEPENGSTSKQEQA

[27] = target: T21, Sla1-3, P32790; settings: median of control spots 5475
T21 sequence (P32790 344-424, looked up): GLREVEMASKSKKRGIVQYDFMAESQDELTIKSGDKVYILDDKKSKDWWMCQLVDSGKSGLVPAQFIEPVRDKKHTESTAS

Row | Binder | SPOT intensity [1] | SPOT intensity [2] | SPOT intensity [3] | SPOT intensity [4] | SPOT intensity [5] | SPOT intensity [6] | SPOT intensity [7] | SPOT intensity [8] | SPOT intensity [9] | SPOT intensity [10] | SPOT intensity [11] | SPOT intensity [12] | SPOT intensity [13] | SPOT intensity [14] | SPOT intensity [15] | SPOT intensity [16] | SPOT intensity [17] | SPOT intensity [18] | SPOT intensity [19] | SPOT intensity [20] | further results
1 | VRVKKRPLIRPLNSS | 301 | 201 | 0 | 0 | 2 | 3 | 16 | 1 | 11 | 127 | 2 | 6 | 1 | 0 | 14 | 9 | 6 | 16 | 8 | 1 | SPOT intensity [21]: 9; SPOT intensity [22]: 4; SPOT intensity [23]: 1; SPOT intensity [24]: 7; SPOT intensity [25]: 188; SPOT intensity [26]: 2; SPOT intensity [27]: 22
2 | VNFRRIPTGPDSPPT | 5 | 2 | 0 | 0 | 0 | 0 | 3 | 0 | 3 | 0 | 0 | 0 | 0 | 3 | 4 | 0 | 2 | 2 | 0 | 0 | SPOT intensity [21]: 0; SPOT intensity [22]: 6; SPOT intensity [23]: 0; SPOT intensity [24]: 2; SPOT intensity [25]: 19; SPOT intensity [26]: 0; SPOT intensity [27]: 17
3 | ISRRRLPVIMHRLKM | 90 | 26 | 0 | 16 | 1 | 1 | 2 | 0 | 5 | 51 | 0 | 15 | 0 | 9 | 17 | 137 | 2 | 21 | 7 | 2 | SPOT intensity [21]: 5; SPOT intensity [22]: 22; SPOT intensity [23]: 27; SPOT intensity [24]: 21; SPOT intensity [25]: 112; SPOT intensity [26]: 1; SPOT intensity [27]: 20
4 | LRIKRKPVQTFFEFI | 102 | 54 | 1 | 4 | 11 | 1 | 17 | 0 | 0 | 271 | 1 | 16 | 1 | 7 | 25 | 4 | 0 | 12 | 8 | 0 | SPOT intensity [21]: 46; SPOT intensity [22]: 13; SPOT intensity [23]: 5; SPOT intensity [24]: 2; SPOT intensity [25]: 173; SPOT intensity [26]: 0; SPOT intensity [27]: 9
5 | KRKRFNLLLPKPYLT | 72 | 175 | 3 | 4 | 9 | 2 | 34 | 3 | 6 | 32 | 3 | 64 | 2 | 4 | 12 | 0 | 0 | 1 | 0 | 0 | SPOT intensity [21]: 53; SPOT intensity [22]: 3; SPOT intensity [23]: 0; SPOT intensity [24]: 3; SPOT intensity [25]: 98; SPOT intensity [26]: 2; SPOT intensity [27]: 34
6 | HRRRRVFSIPSLKSI | 158 | 395 | 1 | 8 | 15 | 4 | 64 | 3 | 5 | 131 | 5 | 136 | 1 | 17 | 19 | 114 | 5 | 10 | 6 | 0 | SPOT intensity [21]: 176; SPOT intensity [22]: 4; SPOT intensity [23]: 7; SPOT intensity [24]: 3; SPOT intensity [25]: 123; SPOT intensity [26]: 0; SPOT intensity [27]: 117
